Source: publication PMC9232890

Target: NIST mAb
Assay: AUC

amount of dimer (%), fit of 20 scans: 3% | amount of dimer (%), fit of 50 scans: 3% | amount of dimer (%), fit of 100 scans: 3% | amount of dimer (%), fit of 250 scans: 3%
Substance: NIST mAb (antibody)
